Assay results from patent US20240400654A1.
Changes are numbered by the printed parent chain. In names and notes the source's numbering stands. Several values for one entry are separate records, joined by “and”; a condition that tells them apart may be missing. Equal values may be shown once.

Key:
[1] = target: HRgpA-6H (Porphyromonas gingivalis) (UniProt P28784); test: ELISA, FASEBA screening, coated HRgpA-6H; variant OD over parental WT Fab OD
[2] = target: HRgpA-6H (Porphyromonas gingivalis) (UniProt P28784); test: ELISA, FASEBA screening, coated HRgpA-6H 0.0625 ug/ml

Chain of UniProt P28784 (P28784 228-860): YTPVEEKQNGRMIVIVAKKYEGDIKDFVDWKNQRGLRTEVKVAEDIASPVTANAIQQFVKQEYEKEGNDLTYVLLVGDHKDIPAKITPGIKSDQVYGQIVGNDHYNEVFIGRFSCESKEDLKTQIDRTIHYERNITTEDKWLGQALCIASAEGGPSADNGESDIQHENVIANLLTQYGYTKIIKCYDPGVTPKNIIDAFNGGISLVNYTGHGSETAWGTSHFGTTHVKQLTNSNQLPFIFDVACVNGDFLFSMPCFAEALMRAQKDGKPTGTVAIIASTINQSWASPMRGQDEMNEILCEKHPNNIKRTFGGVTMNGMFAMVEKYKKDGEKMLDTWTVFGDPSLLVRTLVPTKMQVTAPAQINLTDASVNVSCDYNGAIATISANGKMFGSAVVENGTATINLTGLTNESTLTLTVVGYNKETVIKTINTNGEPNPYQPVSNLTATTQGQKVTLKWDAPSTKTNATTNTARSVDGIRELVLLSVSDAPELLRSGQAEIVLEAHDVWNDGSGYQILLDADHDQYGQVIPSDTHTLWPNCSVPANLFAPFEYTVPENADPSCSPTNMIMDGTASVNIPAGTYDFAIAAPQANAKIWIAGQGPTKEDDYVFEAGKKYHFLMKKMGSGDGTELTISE

B1: KB001 parental mouse Fab FASEBA variant VH S65Y (Fab, V domains shown)
VH: EVQLKQSGPGLVAPSQSLSITCTVSGFSLSIYSVHWVRQPPGKGLEWLGMIWGGGSSDYNSALKYRLSISKDNSKSQVFLKMNSLQTDDTAMYYCARNGNFYAMDYWGQGTSVTVSS
VL: QIVLTQSPAIMSASLGERVTMTCTASSSVSSSFLHWYQQKPGSSPQLWIYSTSNLASGVPARFSGSGSGTSYSLTISSMEAEDAATYYCHQYHHSPYIYTFGGGTKLEIK
Question: For B1, which Ratio OD(Variant)/OD(WT) [1] is on record?
Answer: Its Ratio OD(Variant)/OD(WT) is 0.875.

Question: And the OD450 nm [2]?
Answer: Its OD450 nm is 0.724.

B2: KB001 parental mouse Fab FASEBA variant VH A103K (Fab, V domains shown)
VH: B1 VH with Y65S, A103K
VL: B1 VL
Question: Which Ratio OD(Variant)/OD(WT) [1] does the source give for B2 here?
Answer: The Ratio OD(Variant)/OD(WT) was 0.839.

Question: What about the OD450 nm [2] of the same binder?
Answer: Its OD450 nm is 0.723.

B3: KB001 parental mouse Fab FASEBA variant VH N100R (Fab, V domains shown)
VH: B1 VH with Y65S, N100R
VL: B1 VL
Question: Which results are given for B3?
Answer: Ratio OD(Variant)/OD(WT) [1]: 0.93; OD450 nm [2]: 0.788

B4: KB001 parental mouse Fab FASEBA variant VH S65T (Fab, V domains shown)
VH: B1 VH with Y65T
VL: B1 VL
Question: Which Ratio OD(Variant)/OD(WT) [1] does the source give for B4 here?
Answer: The Ratio OD(Variant)/OD(WT) was 0.918.

Question: What about the OD450 nm [2] of the same binder?
Answer: The OD450 nm was 0.759.

B5: KB001 parental mouse Fab FASEBA variant VH N100G (Fab, V domains shown)
VH: B1 VH with Y65S, N100G
VL: B1 VL
Question: Which Ratio OD(Variant)/OD(WT) [1] does the source give for B5 here?
Answer: Its Ratio OD(Variant)/OD(WT) is 0.908 and 0.961.

Question: What about the OD450 nm [2] of the same binder?
Answer: Its OD450 nm is 0.769 and 0.814.

B6: KB001 parental mouse Fab FASEBA variant VH A103L (Fab, V domains shown)
VH: B1 VH with Y65S, A103L
VL: B1 VL
Question: For B6, which Ratio OD(Variant)/OD(WT) [1] is on record?
Answer: Its Ratio OD(Variant)/OD(WT) is 0.908.

Question: And the OD450 nm [2]?
Answer: The OD450 nm was 0.783.

B7: KB001 parental mouse Fab FASEBA variant VH N100C (Fab, V domains shown)
VH: B1 VH with Y65S, N100C
VL: B1 VL
Question: Which Ratio OD(Variant)/OD(WT) [1] does the source give for B7 here?
Answer: Its Ratio OD(Variant)/OD(WT) is 0.812.

Question: And the OD450 nm [2]?
Answer: Its OD450 nm is 0.688.

B8: KB001 parental mouse Fab FASEBA variant VH A103M (Fab, V domains shown)
VH: B1 VH with Y65S, A103M
VL: B1 VL
Question: What does the source list for B8?
Answer: Ratio OD(Variant)/OD(WT) [1]: 0.941; OD450 nm [2]: 0.811

B9: KB001 parental mouse Fab FASEBA variant VH N100E (Fab, V domains shown)
VH: B1 VH with Y65S, N100E
VL: B1 VL
Question: With B9 as the binder, how does the Ratio OD(Variant)/OD(WT) [1] read?
Answer: The Ratio OD(Variant)/OD(WT) was 0.972.

Question: What about the OD450 nm [2] of the same binder?
Answer: The OD450 nm was 0.823.

B10: KB001 parental mouse Fab FASEBA variant VH G99C (Fab, V domains shown)
VH: B1 VH with Y65S, G99C
VL: B1 VL
Question: How did the Ratio OD(Variant)/OD(WT) [1] turn out when B10 was run?
Answer: Its Ratio OD(Variant)/OD(WT) is 0.974.

Question: What about the OD450 nm [2] of the same binder?
Answer: Its OD450 nm is 0.776.

B11: KB001 parental mouse Fab FASEBA variant VH G99F (Fab, V domains shown)
VH: B1 VH with Y65S, G99F
VL: B1 VL
Question: Which results are given for B11?
Answer: Ratio OD(Variant)/OD(WT) [1]: 0.967; OD450 nm [2]: 0.771

B12: KB001 parental mouse Fab FASEBA variant VH A103V (Fab, V domains shown)
VH: B1 VH with Y65S, A103V
VL: B1 VL
Question: For B12, which Ratio OD(Variant)/OD(WT) [1] is on record?
Answer: The Ratio OD(Variant)/OD(WT) was 0.985 and 0.936.

Question: What about the OD450 nm [2] of the same binder?
Answer: The OD450 nm was 0.849 and 0.807.

B13: KB001 parental mouse Fab FASEBA variant VH G99N (Fab, V domains shown)
VH: B1 VH with Y65S, G99N
VL: B1 VL
Question: Which results are given for B13?
Answer: Ratio OD(Variant)/OD(WT) [1]: 0.802 and 0.876; OD450 nm [2]: 0.639 and 0.698

B14: KB001 parental mouse Fab FASEBA variant VH N100Q (Fab, V domains shown)
VH: B1 VH with Y65S, N100Q
VL: B1 VL
Question: Which results are given for B14?
Answer: Ratio OD(Variant)/OD(WT) [1]: 0.999; OD450 nm [2]: 0.846

B15: KB001 parental mouse Fab FASEBA variant VH S65L (Fab, V domains shown)
VH: B1 VH with Y65L
VL: B1 VL
Question: What does the source list for B15?
Answer: Ratio OD(Variant)/OD(WT) [1]: 0.88; OD450 nm [2]: 0.728

B16: KB001 parental mouse Fab FASEBA variant VH N100T (Fab, V domains shown)
VH: B1 VH with Y65S, N100T
VL: B1 VL
Question: Which results are given for B16?
Answer: Ratio OD(Variant)/OD(WT) [1]: 0.893 and 0.924; OD450 nm [2]: 0.756 and 0.783

B17: KB001 parental mouse Fab FASEBA variant VH N100L (Fab, V domains shown)
VH: B1 VH with Y65S, N100L
VL: B1 VL
Question: What does the source list for B17?
Answer: Ratio OD(Variant)/OD(WT) [1]: 0.965 and 0.869 and 0.932; OD450 nm [2]: 0.817 and 0.736 and 0.789

B18: KB001 parental mouse Fab FASEBA variant VH F101M (Fab, V domains shown)
VH: B1 VH with Y65S, F101M
VL: B1 VL
Question: Which Ratio OD(Variant)/OD(WT) [1] does the source give for B18 here?
Answer: The Ratio OD(Variant)/OD(WT) was 0.891.

Question: And the OD450 nm [2]?
Answer: Its OD450 nm is 0.755.

B19: KB001 parental mouse Fab FASEBA variant VH N100P (Fab, V domains shown)
VH: B1 VH with Y65S, N100P
VL: B1 VL
Question: With B19 as the binder, how does the Ratio OD(Variant)/OD(WT) [1] read?
Answer: The Ratio OD(Variant)/OD(WT) was 0.894.

Question: And the OD450 nm [2]?
Answer: The OD450 nm was 0.757.

B20: KB001 parental mouse Fab FASEBA variant VH M104L (Fab, V domains shown)
VH: B1 VH with Y65S, M104L
VL: B1 VL
Question: B20 was tested. Which Ratio OD(Variant)/OD(WT) [1] did it give?
Answer: Its Ratio OD(Variant)/OD(WT) is 0.904.

Question: And the OD450 nm [2]?
Answer: Its OD450 nm is 0.786.
